The results in this text go back to patent publication US20240034785A1, “RXR-ALPHA BINDERS AND RXR-ALPHA/PLK1 MODULATORS” (NUCMITO PHARMACEUTICALS CO. LTD., priority 2020, published 2024).

The target of this experiment is T1, polo-like kinase 1 (PLK1), full-length (human, UniProt P53350 1-603).
T1 construct: Endogenous, FLAG-tagged and His-tagged forms are merged here; also called FLAG-PLK1; Flag-PLK1
Nature of the experiment: CoIP of FLAG-PLK1 with Myc-RXRα mutants in HeLa cells (FIG. 27).

T1 sequence (P53350 whole entry): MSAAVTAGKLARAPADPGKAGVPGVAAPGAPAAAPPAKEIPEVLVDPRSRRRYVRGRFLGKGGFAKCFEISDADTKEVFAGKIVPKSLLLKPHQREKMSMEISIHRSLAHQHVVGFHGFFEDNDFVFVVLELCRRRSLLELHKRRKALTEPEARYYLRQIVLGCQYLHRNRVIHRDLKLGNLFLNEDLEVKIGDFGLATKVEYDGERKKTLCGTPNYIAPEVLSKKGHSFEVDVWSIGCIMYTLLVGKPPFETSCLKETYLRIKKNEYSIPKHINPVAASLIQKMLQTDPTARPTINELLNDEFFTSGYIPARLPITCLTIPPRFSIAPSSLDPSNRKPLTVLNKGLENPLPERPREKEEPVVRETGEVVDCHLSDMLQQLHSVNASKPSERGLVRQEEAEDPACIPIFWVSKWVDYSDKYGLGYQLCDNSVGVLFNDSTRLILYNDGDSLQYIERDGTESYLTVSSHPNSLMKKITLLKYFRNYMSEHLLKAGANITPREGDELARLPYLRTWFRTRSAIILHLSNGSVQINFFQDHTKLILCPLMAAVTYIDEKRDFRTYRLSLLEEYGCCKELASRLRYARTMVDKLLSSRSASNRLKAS

B1: RXRα-S56A/S70A (RXRα-2A) (receptor)
chain: MDTKHFLPLDFSTQVNSSLTSPTGRGSMAAPSLHPSLGPGIGSPGQLHSPISTLSAPINGMGPPFSVISAPMGPHSMSVPTTPTLGFSTGSPQLSSPMNPVSSSEDIKPPLGLNGVLKVPAHPSGNMASFTKHICAICGDRSSGKHYGVYSCEGCKGFFKRTVRKDLTYTCRDNKDCLIDKRQRNRCQYCRYQKCLAMGMKREAVQEERQRGKDRNENEVESTSSANEDMPVERILEAELAVEPKTETYVEANMGLNPSSPNDPVTNICQAADKQLFTLVEWAKRIPHFSELPLDDQVILLRAGWNELLIASFSHRSIAVKDGILLATGLHVHRNSAHSAGVGAIFDRVLTELVSKMRDMQMDKTELGCLRAIVLFNPDSKGLSNPAEVEALREKVYASLEAYCKHKYPEQPGRFAKLLLRLPALRSIGLKCLEHLFFFKLIGDTPIDTFLMEMLEAPHQMT
notes: Myc-tagged (CoIP) and GST-fused (kinase assay) forms are merged; also called RXR-S56A/S70A(2A); GST-RXRα-2A
Take B1: the binding result is recorded as “no binding”.
